According to patent publication US20220363770A1 (Amgen, published 2022):

T1: human PAC1 receptor (human, UniProt P41586 24-468)
T1 sequence: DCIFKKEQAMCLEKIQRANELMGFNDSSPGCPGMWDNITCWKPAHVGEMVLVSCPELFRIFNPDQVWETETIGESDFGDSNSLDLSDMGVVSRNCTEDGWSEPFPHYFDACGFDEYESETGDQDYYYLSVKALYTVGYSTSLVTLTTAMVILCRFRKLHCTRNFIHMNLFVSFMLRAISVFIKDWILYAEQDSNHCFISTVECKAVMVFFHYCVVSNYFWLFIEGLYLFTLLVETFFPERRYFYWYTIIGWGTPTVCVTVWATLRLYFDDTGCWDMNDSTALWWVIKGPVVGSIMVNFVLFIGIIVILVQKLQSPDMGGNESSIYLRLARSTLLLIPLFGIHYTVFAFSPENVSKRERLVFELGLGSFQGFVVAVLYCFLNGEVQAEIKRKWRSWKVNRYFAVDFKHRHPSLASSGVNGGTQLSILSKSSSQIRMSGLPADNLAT


Tests used:
human CGRP receptor = human CGRP receptor (human, UniProt Q16602 23-461; O60894 27-148); assay: cell-based or functional assay
human CGRP receptor, sequence (Q16602 23-461 limits assumed, chain 1 of 2): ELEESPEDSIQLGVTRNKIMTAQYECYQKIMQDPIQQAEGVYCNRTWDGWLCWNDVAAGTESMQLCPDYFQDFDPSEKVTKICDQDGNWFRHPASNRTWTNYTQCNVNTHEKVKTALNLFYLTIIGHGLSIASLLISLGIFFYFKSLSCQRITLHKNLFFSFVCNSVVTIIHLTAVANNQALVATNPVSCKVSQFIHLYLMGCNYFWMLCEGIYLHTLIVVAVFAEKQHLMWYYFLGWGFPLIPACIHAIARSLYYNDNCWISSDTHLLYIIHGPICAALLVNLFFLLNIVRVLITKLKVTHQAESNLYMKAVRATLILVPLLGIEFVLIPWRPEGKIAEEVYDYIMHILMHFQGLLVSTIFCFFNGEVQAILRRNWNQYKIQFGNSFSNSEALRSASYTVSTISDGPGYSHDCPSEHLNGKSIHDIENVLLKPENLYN
human CGRP receptor, sequence (O60894 27-148 limits assumed, chain 2 of 2): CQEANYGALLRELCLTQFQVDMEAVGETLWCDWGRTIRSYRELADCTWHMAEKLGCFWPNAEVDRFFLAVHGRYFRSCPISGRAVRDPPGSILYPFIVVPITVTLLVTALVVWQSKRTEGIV

human PAC1 receptor = biological target: T1, human PAC1 receptor; assay: cell-based or functional assay

| Binder | Fold-improvement over 4E4 Ab (human CGRP receptor) | IC50 (human CGRP receptor) | Fold-improvement over 29G4v22 Ab (human PAC1 receptor) | IC50 (human PAC1 receptor) |
| --- | --- | --- | --- | --- |
| iPS:454839 (bispecific antibody, human IgG1, kappa, lambda, N297G) light 1: QSVLTQPPSVSAAPGQKVTISCSGSRSNIGIKAVSWYQQLPGTAPKLLIYDNNKRPSGIPDRFSGSKSGTSATLGITGLQTGDEADYYCGTWDSRLSAVVFGGGTKLTVLGQPKAAPSVTLFPPSSEELQANKATLVCLISDFYPGAVTVAWKADSSPVKAGVETTTPSKQSNNKYAAKSYLSLTPEQWKSHRSYSCQVTHEGSTVEKTVAPTECS heavy 1: QVQLVESGGGVVQPGRSLRLSCAASGFTFSSFGMHWVRQAPGKGLEWVAVISFDGSIKYSVDSVKGRFTISRDNSKNTLFLQMNSLRAEDTAVYYCARDRLNYYESSGYYHYKYYGMAVWGQGTTVTVSSASTKGPSVFPLAPSSKSTSGGTAALGCLVKDYFPEPVTVSWNSGALTSGVHTFPAVLQSSGLYSLESVVTVPSSSLGTQTYICNVNHKPSNTKVDKKVEPKSCDKTHTCPPCPAPELLGGPSVFLFPPKPKDTLMISRTPEVTCVVVDVSHEDPEVKFNWYVDGVEVHNAKTKPCEEQYGSTYRCVSVLTVLHQDWLNGKEYKCKVSNKALPAPIEKTISKAKGQPREPQVYTLPPSRKKMTKNQVSLTCLVKGFYPSDIAVEWESNGQPENNYKTTPPVLKSDGSFFLYSKLTVDKSRWQQGNVFSCSVMHEALHNHYTQKSLSLSPGK light 2: EIVLTQSPATLSLSPGERATLSCRASKSVGWSLHWYQQKPGQAPRLLIKYASQSLSGIPARFSGSGSGTDFTLTISSLEPEDFAVYYCHQSSRLPFTFGPGTKVDIKRTVAAPSVFIFPPSDEQLKSGTASVVCLLNNFYPREAKVQWKVDNALQSGNSQESVTEQDSKDSTYSLESTLTLSKADYEKHKVYACEVTHQGLSSPVTKSFNRGEC heavy 2: not shown | 1.8 fold | 0.36 nM | 8.6 fold | 0.79 nM |
| iPS:454841 (bispecific antibody, human IgG1, kappa, lambda, N297G) light 1: QSVLTQPPSVSAAPGQKVTISCSGSRSNIGIKAVSWYQQLPGTAPKLLIYDNNKRPSGIPDRFSGSKSGTSATLGITGLQTGDEADYYCGTWDSRLSAVVFGGGTKLTVLGQPKAAPSVTLFPPSSEELQANKATLVCLISDFYPGAVTVAWKADSSPVKAGVETTTPSKQSNNKYAAKSYLSLTPEQWKSHRSYSCQVTHEGSTVEKTVAPTECS heavy 1: QVQLVESGGGVVQPGRSLRLSCAASGFTFSSFGMHWVRQAPGKGLEWVAVISFDGSIKYSVDSVKGRFTISRDNSKNTLFLQMNSLRAEDTAVYYCARDRLNYYESSGYYHYKYYGMAVWGQGTTVTVSSASTKGPSVFPLAPSSKSTSGGTAALGCLVKDYFPEPVTVSWNSGALTSGVHTFPAVLQSSGLYSLESVVTVPSSSLGTQTYICNVNHKPSNTKVDKKVEPKSCDKTHTCPPCPAPELLGGPSVFLFPPKPKDTLMISRTPEVTCVVVDVSHEDPEVKFNWYVDGVEVHNAKTKPCEEQYGSTYRCVSVLTVLHQDWLNGKEYKCKVSNKALPAPIEKTISKAKGQPREPQVYTLPPSRKKMTKNQVSLTCLVKGFYPSDIAVEWESNGQPENNYKTTPPVLKSDGSFFLYSKLTVDKSRWQQGNVFSCSVMHEALHNHYTQKSLSLSPGK light 2: EIVLTQSPATLSLSPGERATLSCRASKSVGWSLHWYQQKPGQAPRLLIKYASQSLSGIPARFSGSGSGTDFTLTISSLEPEDFAVYYCHQSSRLPFTFGPGTKVDIKRTVAAPSVFIFPPSDEQLKSGTASVVCLLNNFYPREAKVQWKVDNALQSGNSQESVTEQDSKDSTYSLESTLTLSKADYEKHKVYACEVTHQGLSSPVTKSFNRGEC heavy 2: not shown | 1.4 fold | 0.46 nM | 8.8 fold | 0.78 nM |
| iPS:454843 (bispecific antibody, human IgG1, kappa, lambda, N297G) light 1: QSVLTQPPSVSAAPGQKVTISCSGSRSNIGIKAVSWYQQLPGTAPKLLIYDNNKRPSGIPDRFSGSKSGTSATLGITGLQTGDEADYYCGTWDSRLSAVVFGGGTKLTVLGQPKAAPSVTLFPPSSEELQANKATLVCLISDFYPGAVTVAWKADSSPVKAGVETTTPSKQSNNKYAAKSYLSLTPEQWKSHRSYSCQVTHEGSTVEKTVAPTECS heavy 1: QVQLVESGGGVVQPGRSLRLSCAASGFTFSSFGMHWVRQAPGKGLEWVAVISFDGSIKYSVDSVKGRFTISRDNSKNTLFLQMNSLRAEDTAVYYCARDRLNYYESSGYYHYKYYGMAVWGQGTTVTVSSASTKGPSVFPLAPSSKSTSGGTAALGCLVKDYFPEPVTVSWNSGALTSGVHTFPAVLQSSGLYSLESVVTVPSSSLGTQTYICNVNHKPSNTKVDKKVEPKSCDKTHTCPPCPAPELLGGPSVFLFPPKPKDTLMISRTPEVTCVVVDVSHEDPEVKFNWYVDGVEVHNAKTKPCEEQYGSTYRCVSVLTVLHQDWLNGKEYKCKVSNKALPAPIEKTISKAKGQPREPQVYTLPPSRKKMTKNQVSLTCLVKGFYPSDIAVEWESNGQPENNYKTTPPVLKSDGSFFLYSKLTVDKSRWQQGNVFSCSVMHEALHNHYTQKSLSLSPGK light 2: EIVLTQSPATLSLSPGERATLSCRASKSVGWSLHWYQQKPGQAPRLLIKYASQSLSGIPARFSGSGSGTDFTLTISSLEPEDFAVYYCHQSSRLPFTFGPGTKVDIKRTVAAPSVFIFPPSDEQLKSGTASVVCLLNNFYPREAKVQWKVDNALQSGNSQESVTEQDSKDSTYSLESTLTLSKADYEKHKVYACEVTHQGLSSPVTKSFNRGEC heavy 2: not shown | 1.6 fold | 0.42 nM | 5.8 fold | 0.93 nM |
| iPS:454845 (bispecific antibody, human IgG1, kappa, lambda, N297G) light 1: QSVLTQPPSVSAAPGQKVTISCSGSRSNIGIKAVSWYQQLPGTAPKLLIYDNNKRPSGIPDRFSGSKSGTSATLGITGLQTGDEADYYCGTWDSRLSAVVFGGGTKLTVLGQPKAAPSVTLFPPSSEELQANKATLVCLISDFYPGAVTVAWKADSSPVKAGVETTTPSKQSNNKYAAKSYLSLTPEQWKSHRSYSCQVTHEGSTVEKTVAPTECS heavy 1: QVQLVESGGGVVQPGRSLRLSCAASGFTFSSFGMHWVRQAPGKGLEWVAVISFDGSIKYSVDSVKGRFTISRDNSKNTLFLQMNSLRAEDTAVYYCARDRLNYYESSGYYHYKYYGMAVWGQGTTVTVSSASTKGPSVFPLAPSSKSTSGGTAALGCLVKDYFPEPVTVSWNSGALTSGVHTFPAVLQSSGLYSLESVVTVPSSSLGTQTYICNVNHKPSNTKVDKKVEPKSCDKTHTCPPCPAPELLGGPSVFLFPPKPKDTLMISRTPEVTCVVVDVSHEDPEVKFNWYVDGVEVHNAKTKPCEEQYGSTYRCVSVLTVLHQDWLNGKEYKCKVSNKALPAPIEKTISKAKGQPREPQVYTLPPSRKKMTKNQVSLTCLVKGFYPSDIAVEWESNGQPENNYKTTPPVLKSDGSFFLYSKLTVDKSRWQQGNVFSCSVMHEALHNHYTQKSLSLSPGK light 2: EIVLTQSPATLSLSPGERATLSCRASKSVGWSLHWYQQKPGQAPRLLIKYASQSLSGIPARFSGSGSGTDFTLTISSLEPEDFAVYYCHQSSRLPFTFGPGTKVDIKRTVAAPSVFIFPPSDEQLKSGTASVVCLLNNFYPREAKVQWKVDNALQSGNSQESVTEQDSKDSTYSLESTLTLSKADYEKHKVYACEVTHQGLSSPVTKSFNRGEC heavy 2: not shown | 1.7 fold | 0.4 nM | 8.2 fold | 0.66 nM |
| iPS:454847 (bispecific antibody, human IgG1, kappa, lambda, N297G) light 1: QSVLTQPPSVSAAPGQKVTISCSGSRSNIGIKAVSWYQQLPGTAPKLLIYDNNKRPSGIPDRFSGSKSGTSATLGITGLQTGDEADYYCGTWDSRLSAVVFGGGTKLTVLGQPKAAPSVTLFPPSSEELQANKATLVCLISDFYPGAVTVAWKADSSPVKAGVETTTPSKQSNNKYAAKSYLSLTPEQWKSHRSYSCQVTHEGSTVEKTVAPTECS heavy 1: QVQLVESGGGVVQPGRSLRLSCAASGFTFSSFGMHWVRQAPGKGLEWVAVISFDGSIKYSVDSVKGRFTISRDNSKNTLFLQMNSLRAEDTAVYYCARDRLNYYESSGYYHYKYYGMAVWGQGTTVTVSSASTKGPSVFPLAPSSKSTSGGTAALGCLVKDYFPEPVTVSWNSGALTSGVHTFPAVLQSSGLYSLESVVTVPSSSLGTQTYICNVNHKPSNTKVDKKVEPKSCDKTHTCPPCPAPELLGGPSVFLFPPKPKDTLMISRTPEVTCVVVDVSHEDPEVKFNWYVDGVEVHNAKTKPCEEQYGSTYRCVSVLTVLHQDWLNGKEYKCKVSNKALPAPIEKTISKAKGQPREPQVYTLPPSRKKMTKNQVSLTCLVKGFYPSDIAVEWESNGQPENNYKTTPPVLKSDGSFFLYSKLTVDKSRWQQGNVFSCSVMHEALHNHYTQKSLSLSPGK light 2: EIVLTQSPATLSLSPGERATLSCRASKSVGWSLHWYQQKPGQAPRLLIKYASQSLSGIPARFSGSGSGTDFTLTISSLEPEDFAVYYCHQSSRLPFTFGPGTKVDIKRTVAAPSVFIFPPSDEQLKSGTASVVCLLNNFYPREAKVQWKVDNALQSGNSQESVTEQDSKDSTYSLESTLTLSKADYEKHKVYACEVTHQGLSSPVTKSFNRGEC heavy 2: not shown | 1.5 fold | 0.43 nM | 6.7 fold | 0.8 nM |
| iPS:454849 (bispecific antibody, human IgG1, kappa, lambda, N297G) light 1: QSVLTQPPSVSAAPGQKVTISCSGSRSNIGIKAVSWYQQLPGTAPKLLIYDNNKRPSGIPDRFSGSKSGTSATLGITGLQTGDEADYYCGTWDSRLSAVVFGGGTKLTVLGQPKAAPSVTLFPPSSEELQANKATLVCLISDFYPGAVTVAWKADSSPVKAGVETTTPSKQSNNKYAAKSYLSLTPEQWKSHRSYSCQVTHEGSTVEKTVAPTECS heavy 1: QVQLVESGGGVVQPGRSLRLSCAASGFTFSSFGMHWVRQAPGKGLEWVAVISFDGSIKYSVDSVKGRFTISRDNSKNTLFLQMNSLRAEDTAVYYCARDRLNYYESSGYYHYKYYGMAVWGQGTTVTVSSASTKGPSVFPLAPSSKSTSGGTAALGCLVKDYFPEPVTVSWNSGALTSGVHTFPAVLQSSGLYSLESVVTVPSSSLGTQTYICNVNHKPSNTKVDKKVEPKSCDKTHTCPPCPAPELLGGPSVFLFPPKPKDTLMISRTPEVTCVVVDVSHEDPEVKFNWYVDGVEVHNAKTKPCEEQYGSTYRCVSVLTVLHQDWLNGKEYKCKVSNKALPAPIEKTISKAKGQPREPQVYTLPPSRKKMTKNQVSLTCLVKGFYPSDIAVEWESNGQPENNYKTTPPVLKSDGSFFLYSKLTVDKSRWQQGNVFSCSVMHEALHNHYTQKSLSLSPGK light 2: EIVLTQSPATLSLSPGERATLSCRASKSVGWSLHWYQQKPGQAPRLLIKYASQSLSGIPARFSGSGSGTDFTLTISSLEPEDFAVYYCHQSSRLPFTFGPGTKVDIKRTVAAPSVFIFPPSDEQLKSGTASVVCLLNNFYPREAKVQWKVDNALQSGNSQESVTEQDSKDSTYSLESTLTLSKADYEKHKVYACEVTHQGLSSPVTKSFNRGEC heavy 2: not shown | 1.2 fold | 0.55 nM | 3.6 fold | 1.48 nM |
